Experimental data published in US20260365692A1, “COMPOSITIONS COMPRISING PROTEINS DISSOLVED IN FLUORINATED SOLVENTS, AND METHODS OF MAKING AND USING THE SAME” (priority 2022, published 2026).

How the values were obtained:
[1] = Temperature-dependent circular dichroism of proteins in PFOc or PBS (Example 4); format: physicochemical; details: dispersed in PFOc using PD-7, heated up to 85 °C
Method: FIGS. 39A-39B depict temperature-dependent CD spectra of the indicated test protein solubilized in PFOc using the PD-7 dispersant, or PBS as a control.
FIG. 40 depicts the change in minimum CD ellipticity over the 40 °C-85 °C temperature interval for the indicated protein dissolved in either PBS or PFOc.
To determine structural integrity of proteins in aqueous and fluorinated environments at elevated temperatures, circular dichroism (CD) was used to probe secondary structure. Proteins were either diluted in PBS (aqueous) or dispersed in PFOc at the same designated concentrations according to protocol described above. For aqueous samples, dissolved proteins were heated between 40 °C to 90 °C, and their corresponding CD spectra at each temperature was measured. For PFOc samples, each of the PFOc dispersed proteins were subjected to heat treatment at 40, 55, 70, and 85 °C for 15 minutes. After that, dispersed proteins were eluted into PBS before having their CD spectra taken. Data is shown by representative ellipticity at each temperature depicted by distinct colors.

[2] = Pharmacokinetics of β-Gal formulations in C57BL/6 mice (Example 4); format: in vivo; details: i.v.
Excerpt: FIG. 55 depicts time-dependent enzymatic activity of β-Gal in plasma delivered systemically in either saline (β-GalSaline) or extracted PFOc (β-GalExt. PFOc). Data shown as average±s.d. of n=5 technical replicates. Statistical significance determined using Student's t-test and represented as n.s.=not significant, * p<0.05.
To test whether PD-7 coating and PFOc dispersion influences the pharmacokinetic properties of formulated proteins, f-Gal formulations were intravenously administered to C57BL/6 mice and monitored time dependent serum bioavailability (FIG. 55). This experiment utilized a fluorescent conversion substrate to monitor the amount of functional protein in serum, thereby investigating changes to both bioavailability and bioactivity. Due to the large solution volumes administered (150 μL, ~15% of mouse blood volume), PFOc dispersed proteins were extracted into sterile saline before injection to avoid hyponatremia. Future applications in larger mammals would allow direct injection of the fluorous dispersion, without pre-extraction, due to the increased blood volumes and bio-inert nature of most perfluorocarbon solvents. […] However, variance in the data yielded statistical significance only at the t=0 hr and t=3 hr time points.

[3] = Acute toxicity of β-Gal formulations in mice (Example 4); format: in vivo, C57BL/6J mice; details: 24 h
Method: FIG. 56 depicts serologic toxicology results from C57BL/6J mice 24 hours after administration of saline (control), β-GalSaline or β-GalExt. PFOc. Data shown as box and whisker plot±s.d. of n=5 technical replicates. Statistical significance determined using Student's t-test and represented as * p<0.05; all other comparisons were found not to be significant (p>0.05).
Finally, to assess the potential for acute toxicity of the fluorous dispersant, serologic chemistry analysis and histology was performed 24 hours after treating mice with β-Gal delivered from saline or PFOc extractions. […] Reduction of this marker can indicate a transient impairment of kidney and/or liver function.

IgG = test: Surface plasmon resonance, IgG; format: binding, rabbit; details: after reference correction
Excerpt: FIGS. 14A-14L depict circular dichroism spectra of Hb (FIG. 14A), GFP (FIG. 14B), BSA (FIG. 14C), β-Gal (FIG. 14D), rabbit serum IgG (FIG. 14E), transferrin (FIG. 14F), and urease (FIG. 14G) in the absence (black line) or presence (dashed lines) of PFNA. Increasing dash sequence indicated higher concentration of PFNA. FIG. 14H: Change in molar ellipticity at 216 nm (Δθ216) of PFNA-treated proteins, relative to native controls, as a function of increasing ligand concentration. FIG. 14I: Percentage change in secondary structural motifs of Hb, β-Gal and IgG between the native protein and 1 mM PFNA treated samples. β-sheet structures were further differentiated into parallel and antiparallel conformations. Hb, β-Gal and IgG were prioritized for analysis based on their significant spectral shift in the presence of 1 mM PFNA. FIGS. 14J-14L: Sensograms for BSA (FIG. 14J), β-gal (FIG. 14K), and IgG (FIG. 14L) showing relative response (R.U.) at 10, 25, 50, 75, and 100 μM.
To test this assertion, PFNA binding to three exemplary proteins, BSA, β-Gal and IgG, was studied via isothermal titration calorimetry (ITC) and surface plasmon resonance (SPR) techniques. […] SPR analysis yielded similar results, with sensorgrams (FIGS. 14J-14L) that diverged from a simple 1:1 ligand-protein model. […]

A549 cells = test: Protein uptake in A549 cells, Cy5-labeled BSA; format: cell-based, human; details: PFNA
Method: FIGS. 18A-18B depict the uptake of Cy5-labeled BSA in human lung A549 cells after 2 and 24 hours of incubation in the absence/presence of PFNA. Results are shown in relative fluorescence units (RFU).
Multiplexed in vitro assays were employed to probe the influence of PFNA interactions on protein uptake and transport in cells. A549 and PC9 human lung cells were prioritized for these assays given that pulmonary tissue is a primary site of perfluoroalkyl bioaccumulation in humans (Reference: 63). Before initiating experiments, cellular toxicity assays established a maximum tolerated dose of PFNA to avoid confounding protein transport experiments with substantive cell death. Protein uptake was then studied using green fluorescent protein (GFP) and bovine serum albumin (BSACy5) as model biologics that employ non-specific pinocytic mechanisms for cellular entry.

[4] = β-Gal delivered from PFOc vs saline

Row | Molecule | change in secondary structure [1] | serum half-life t1/2 ([2]; native β-Gal administered in saline) [min] | serum half-life t1/2 ([2]; β-Gal from PFOc formulations, extracted into saline) [min] | histologic analysis of vital organs ([3]; kidney, liver, lung, spleen) | albumin/globulin (ALB/GLOB) ratio [3, 4] | other renal (CREA, BUN, TP) and hepatic (ALT, AST, ALKP) markers [3, 4] | SPR response (IgG) | BSA internalization (A549 cells)
1 | β-Gal: β-Galactosidase (β-Gal), dissolved in PBS/saline or dispersed in PFOc | minimal changes in secondary structure | 7.2 | 30 | did not identify pathologic signs of necrosis, cellular infiltration, inflammation, or hemorrhage | statistically significant reduction | absence of statistically significant changes | – | –
2 | O=C(O)C(F)(F)C(F)(F)C(F)(F)C(F)(F)C(F)(F)C(F)(F)C(F)(F)C(F)(F)F [Compound 7, perfluoronanonic acid] | – | – | – | – | – | – | negative responses | less affected
